Reference: paper PMC8639797

Target: ALK ECR^ABR variants with single substitutions in the TNF-like or EGF-like domains (BLI, Fig. 2d)
Experiment: BLI

- fold reduction of affinity against wild type: 2 to 3 fold
B1: ALKAL2-AD (residues 77–152) (domain or fragment)
chain: GPSPEQRVEIVPRDLRMKDKFLKHLTGPLYFSPKCSKHFHRLYHNTRDCTIPAYYKRCARLLTRLAVSPVCMEDKQ
